# According to patent US20090041767A1, “PHARMACEUTICAL COMBINATIONS” (priority 2007, published 2009):
# B1: 339.1: monoclonal antibody that targets murine α5β1; volociximab surrogate; VH SEQ ID NO: 22, VL SEQ ID NO: 23 (antibody, V domains shown)
# VH: MDIRLSLAFLVLFIKGVQCEVYLVESGGGSVQPGRSTKLSCAASEFTFSTSSMAWVRQAPTKGLEWVATISSSGEYTYYRDSVKGRFTISRDNAKSTLYLQMNSLRSEDTATYYCTRGVLYWGQGVMVTVSS
# VL: MAPVQLLGLLLLCLPAMRCDIQMTQSPSLLSASVGDRVTLNCKSSQNIYKNLNWYQQKLGEPPKLLIHYTDNLQAGIPSRFSGSGSGTDYTLTISSLHPDDVATYFCFQYNRGPTFGAGTKLELK
# modifications: heavy chain variable region for mouse volociximab analog; light chain variable region for mouse volociximab analog
# Target: mouse α5β1 (Mus musculus, UniProt P09055+P11688)
# Experiment: antibody binding to mouse α5β1 integrin
# Chain of mouse α5β1 (P11688 45-1053): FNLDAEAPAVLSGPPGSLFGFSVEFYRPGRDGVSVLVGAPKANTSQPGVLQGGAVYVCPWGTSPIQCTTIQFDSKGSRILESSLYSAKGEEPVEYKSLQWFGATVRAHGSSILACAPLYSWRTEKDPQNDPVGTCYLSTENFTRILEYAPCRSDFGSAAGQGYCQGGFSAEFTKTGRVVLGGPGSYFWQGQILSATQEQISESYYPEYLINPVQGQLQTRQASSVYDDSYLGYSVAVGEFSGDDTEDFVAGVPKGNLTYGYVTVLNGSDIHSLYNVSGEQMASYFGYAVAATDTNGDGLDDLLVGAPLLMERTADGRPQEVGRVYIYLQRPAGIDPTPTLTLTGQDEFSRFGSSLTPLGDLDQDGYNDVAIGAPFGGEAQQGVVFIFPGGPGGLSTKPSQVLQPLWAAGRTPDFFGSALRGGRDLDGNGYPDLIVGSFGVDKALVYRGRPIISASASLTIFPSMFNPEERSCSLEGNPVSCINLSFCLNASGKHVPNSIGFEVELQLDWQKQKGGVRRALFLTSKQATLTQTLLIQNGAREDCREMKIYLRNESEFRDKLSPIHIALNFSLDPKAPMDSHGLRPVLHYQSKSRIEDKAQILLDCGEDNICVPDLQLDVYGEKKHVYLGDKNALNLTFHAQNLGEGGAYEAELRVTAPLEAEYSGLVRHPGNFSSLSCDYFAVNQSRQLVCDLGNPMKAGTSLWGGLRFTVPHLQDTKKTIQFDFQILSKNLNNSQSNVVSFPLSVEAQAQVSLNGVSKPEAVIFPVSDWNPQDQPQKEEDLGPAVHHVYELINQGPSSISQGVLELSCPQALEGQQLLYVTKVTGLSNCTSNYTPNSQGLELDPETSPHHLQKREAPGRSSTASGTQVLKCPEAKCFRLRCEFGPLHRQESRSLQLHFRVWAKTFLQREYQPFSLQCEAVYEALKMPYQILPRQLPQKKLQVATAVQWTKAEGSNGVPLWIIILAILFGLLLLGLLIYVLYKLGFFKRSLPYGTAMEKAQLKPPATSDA
# Chain of mouse α5β1 (P09055 21-798): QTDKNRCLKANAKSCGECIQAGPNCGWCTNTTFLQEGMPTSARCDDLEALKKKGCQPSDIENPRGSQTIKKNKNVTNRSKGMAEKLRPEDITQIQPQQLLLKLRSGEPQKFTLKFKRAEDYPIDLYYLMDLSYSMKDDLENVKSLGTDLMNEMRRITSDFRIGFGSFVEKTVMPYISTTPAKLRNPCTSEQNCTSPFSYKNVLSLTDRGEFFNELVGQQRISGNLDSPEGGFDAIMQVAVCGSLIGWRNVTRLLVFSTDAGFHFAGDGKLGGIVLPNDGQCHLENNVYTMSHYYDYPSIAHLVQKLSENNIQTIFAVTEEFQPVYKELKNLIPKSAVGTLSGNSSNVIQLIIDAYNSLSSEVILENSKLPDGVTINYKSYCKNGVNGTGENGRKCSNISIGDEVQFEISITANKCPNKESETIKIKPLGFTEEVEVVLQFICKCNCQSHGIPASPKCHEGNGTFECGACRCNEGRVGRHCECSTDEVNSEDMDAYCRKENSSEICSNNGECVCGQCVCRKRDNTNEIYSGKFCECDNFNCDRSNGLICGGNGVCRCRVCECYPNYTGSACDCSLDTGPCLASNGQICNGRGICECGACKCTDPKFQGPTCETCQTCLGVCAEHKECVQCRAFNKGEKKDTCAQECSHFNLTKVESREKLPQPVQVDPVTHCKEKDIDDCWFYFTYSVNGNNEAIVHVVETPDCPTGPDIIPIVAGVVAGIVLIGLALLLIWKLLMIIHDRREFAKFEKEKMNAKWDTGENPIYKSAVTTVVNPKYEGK
molecule,measurement,value
B1,binding to mouse α5β1,binds mouse α5β1 with high affinity
